From publication PMC3656097
Read-outs that look alike come from different tables or passages of the source.

What was measured:
FGF2 [1] = target: FGF2 (UniProt P09038); conditions: cited from earlier work
FGF2 [2] = target: FGF2 (UniProt P09038); test: SPR; BIAcore 3000; […] (31.25–[…]), HBS-EP buffer; 1:1 Langmuir fit
FGF9 [3] = target: FGF9 (UniProt P31371); test: as above
FGF2 [4] = target: FGF2 (UniProt P09038); test: as above; remark: listed apart in the source
FGF9 [5] = target: FGF9 (UniProt P31371); test: as above; remark: listed apart in the source

Substance | Kd (FGF2 [1]) [nM] | Kd (FGF2 [2]) [nM] | koff (FGF2 [2]) [s⁻¹] | kon (FGF2 [2]) [M⁻¹ s⁻¹] | Kd (FGF9 [3]) [nM] | koff (FGF9 [3]) [s⁻¹] | kon (FGF9 [3]) [M⁻¹ s⁻¹] | Kd (FGF2 [4]) [nM] | koff (FGF2 [4]) [s⁻¹] | kon (FGF2 [4]) [M⁻¹ s⁻¹] | Kd (FGF9 [5]) [nM] | koff (FGF9 [5]) [s⁻¹] | kon (FGF9 [5]) [M⁻¹ s⁻¹]
FGFR2b Loop 2,3 (from UniProt P21802) | 12.8 | – | – | – | – | – | – | – | – | – | – | – | –
FGFR3b Loop 2,3 (domain or fragment) | – | 13.5 | 6.69e-05 | 4980 | 29.9 | 6.53e-05 | 2190 | 12.3 | 0.000159 | 16500 | 31.2 | 9.25e-05 | 2920
